B1: Speckle-type POZ protein (Homo sapiens), O43791 (parent)
chain: MSRVPSPPPPAEMSSGPVAESWCYTQIKVVKFSYMWTINNFSFCREEMGEVIKSSTFSSGANDKLKWCLRVNPKGLDEESKDYLSLYLLLVSCPKSEVRAKFKFSILNAKGEETKAMESQRAYRFVQGKDWGFKKFIRRDFLLDEANGLLPDDKLTLFCEVSVVQDSVNISGQNTMNMVKVPECRLADELGGLWENSRFTDCCLCVAGQEFQAHKAILAARSPVFSAMFEHEMEESKKNRVEINDVEPEVFKEMMCFIYTGKAPNLDKMADDLLAAADKYALERLKVMCEDALCSNLSVENAAEILILADLHSADQLKTQAVDFINYHASDVLETSGWKSMVVSHPHLVAEAYRSLASAQCPFLGPPRKRLKQS

Variants of: B1
Conditions: with bap1_human BAP1, Q92560

effect of a mutation on the interaction | Variant
with no effect | MSRVPSPPPPAEMSSGPVAESWCYTQIKVVKFSYMWTINNFSFCREEMGEVIKSSTFSSGANDKLKWCLRVNPKGLDEESKDYLSLYLLLVSCPKSEVRAKFKFSILNAKGEETKAMESQRAYRFVQGKDWGLKKFIRRDFLLDEANGLLPDDKLTLFCEVSVVQDSVNISGQNTMNMVKVPECRLADELGGLWENSRFTDCCLCVAGQEFQAHKAILAARSPVFSAMFEHEMEESKKNRVEINDVEPEVFKEMMCFIYTGKAPNLDKMADDLLAAADKYALERLKVMCEDALCSNLSVENAAEILILADLHSADQLKTQAVDFINYHASDVLETSGWKSMVVSHPHLVAEAYRSLASAQCPFLGPPRKRLKQS [F133L]

Variants of: B1
Conditions: with bcor_human BCOR

effect of a mutation on the interaction | Variant
with no effect | MSRVPSPPPPAEMSSGPVAESWCYTQIKVVKFSYMWTINNFSFCREEMGEVIKSSTFSSGANDKLKWCLRVNPKGLDEESKDYLSLYLLLVSCPKSEVRAKFKFSILNAKGEETKAMESQRAYRFVQGKDWGLKKFIRRDFLLDEANGLLPDDKLTLFCEVSVVQDSVNISGQNTMNMVKVPECRLADELGGLWENSRFTDCCLCVAGQEFQAHKAILAARSPVFSAMFEHEMEESKKNRVEINDVEPEVFKEMMCFIYTGKAPNLDKMADDLLAAADKYALERLKVMCEDALCSNLSVENAAEILILADLHSADQLKTQAVDFINYHASDVLETSGWKSMVVSHPHLVAEAYRSLASAQCPFLGPPRKRLKQS [F133L]

Variants of: B1
Conditions: with brd4_human BRD4, O60885

effect of a mutation on the interaction | Variant
with no effect | MSRVPSPPPPAEMSSGPVAESWCYTQIKVVKFSYMWTINNFSFCREEMGEVIKSSTFSSGANDKLKWCLRVNPKGLDEESKDYLSLYLLLVSCPKSEVRAKFKFSILNAKGEETKAMESQRAYRFVQGKDWGLKKFIRRDFLLDEANGLLPDDKLTLFCEVSVVQDSVNISGQNTMNMVKVPECRLADELGGLWENSRFTDCCLCVAGQEFQAHKAILAARSPVFSAMFEHEMEESKKNRVEINDVEPEVFKEMMCFIYTGKAPNLDKMADDLLAAADKYALERLKVMCEDALCSNLSVENAAEILILADLHSADQLKTQAVDFINYHASDVLETSGWKSMVVSHPHLVAEAYRSLASAQCPFLGPPRKRLKQS [F133L]

Variants of: B1
Conditions: with baba2_human BABAM2, Q9NXR7

effect of a mutation on the interaction | Variant
with no effect | MSRVPSPPPPAEMSSGPVAESWCYTQIKVVKFSYMWTINNFSFCREEMGEVIKSSTFSSGANDKLKWCLRVNPKGLDEESKDYLSLYLLLVSCPKSEVRAKFKFSILNAKGEETKAMESQRAYRFVQGKDWGLKKFIRRDFLLDEANGLLPDDKLTLFCEVSVVQDSVNISGQNTMNMVKVPECRLADELGGLWENSRFTDCCLCVAGQEFQAHKAILAARSPVFSAMFEHEMEESKKNRVEINDVEPEVFKEMMCFIYTGKAPNLDKMADDLLAAADKYALERLKVMCEDALCSNLSVENAAEILILADLHSADQLKTQAVDFINYHASDVLETSGWKSMVVSHPHLVAEAYRSLASAQCPFLGPPRKRLKQS [F133L]

Variants of: B1
Conditions: with btg1_human BTG1, P62324

effect of a mutation on the interaction | Variant
with no effect | MSRVPSPPPPAEMSSGPVAESWCYTQIKVVKFSYMWTINNFSFCREEMGEVIKSSTFSSGANDKLKWCLRVNPKGLDEESKDYLSLYLLLVSCPKSEVRAKFKFSILNAKGEETKAMESQRAYRFVQGKDWGLKKFIRRDFLLDEANGLLPDDKLTLFCEVSVVQDSVNISGQNTMNMVKVPECRLADELGGLWENSRFTDCCLCVAGQEFQAHKAILAARSPVFSAMFEHEMEESKKNRVEINDVEPEVFKEMMCFIYTGKAPNLDKMADDLLAAADKYALERLKVMCEDALCSNLSVENAAEILILADLHSADQLKTQAVDFINYHASDVLETSGWKSMVVSHPHLVAEAYRSLASAQCPFLGPPRKRLKQS [F133L]

Variants of: B1
Conditions: with btk_human BTK

effect of a mutation on the interaction | Variant
with no effect | MSRVPSPPPPAEMSSGPVAESWCYTQIKVVKFSYMWTINNFSFCREEMGEVIKSSTFSSGANDKLKWCLRVNPKGLDEESKDYLSLYLLLVSCPKSEVRAKFKFSILNAKGEETKAMESQRAYRFVQGKDWGLKKFIRRDFLLDEANGLLPDDKLTLFCEVSVVQDSVNISGQNTMNMVKVPECRLADELGGLWENSRFTDCCLCVAGQEFQAHKAILAARSPVFSAMFEHEMEESKKNRVEINDVEPEVFKEMMCFIYTGKAPNLDKMADDLLAAADKYALERLKVMCEDALCSNLSVENAAEILILADLHSADQLKTQAVDFINYHASDVLETSGWKSMVVSHPHLVAEAYRSLASAQCPFLGPPRKRLKQS [F133L]

Variants of: B1
Conditions: with cblb_human CBLB

effect of a mutation on the interaction | Variant
with no effect | MSRVPSPPPPAEMSSGPVAESWCYTQIKVVKFSYMWTINNFSFCREEMGEVIKSSTFSSGANDKLKWCLRVNPKGLDEESKDYLSLYLLLVSCPKSEVRAKFKFSILNAKGEETKAMESQRAYRFVQGKDWGLKKFIRRDFLLDEANGLLPDDKLTLFCEVSVVQDSVNISGQNTMNMVKVPECRLADELGGLWENSRFTDCCLCVAGQEFQAHKAILAARSPVFSAMFEHEMEESKKNRVEINDVEPEVFKEMMCFIYTGKAPNLDKMADDLLAAADKYALERLKVMCEDALCSNLSVENAAEILILADLHSADQLKTQAVDFINYHASDVLETSGWKSMVVSHPHLVAEAYRSLASAQCPFLGPPRKRLKQS [F133L]

Variants of: B1
Conditions: with ccnd1_human CCND1, P24385

effect of a mutation on the interaction | Variant
with no effect | MSRVPSPPPPAEMSSGPVAESWCYTQIKVVKFSYMWTINNFSFCREEMGEVIKSSTFSSGANDKLKWCLRVNPKGLDEESKDYLSLYLLLVSCPKSEVRAKFKFSILNAKGEETKAMESQRAYRFVQGKDWGLKKFIRRDFLLDEANGLLPDDKLTLFCEVSVVQDSVNISGQNTMNMVKVPECRLADELGGLWENSRFTDCCLCVAGQEFQAHKAILAARSPVFSAMFEHEMEESKKNRVEINDVEPEVFKEMMCFIYTGKAPNLDKMADDLLAAADKYALERLKVMCEDALCSNLSVENAAEILILADLHSADQLKTQAVDFINYHASDVLETSGWKSMVVSHPHLVAEAYRSLASAQCPFLGPPRKRLKQS [F133L]

Variants of: B1
Conditions: with ccnd2_human CCND2, P30279

effect of a mutation on the interaction | Variant
with no effect | MSRVPSPPPPAEMSSGPVAESWCYTQIKVVKFSYMWTINNFSFCREEMGEVIKSSTFSSGANDKLKWCLRVNPKGLDEESKDYLSLYLLLVSCPKSEVRAKFKFSILNAKGEETKAMESQRAYRFVQGKDWGLKKFIRRDFLLDEANGLLPDDKLTLFCEVSVVQDSVNISGQNTMNMVKVPECRLADELGGLWENSRFTDCCLCVAGQEFQAHKAILAARSPVFSAMFEHEMEESKKNRVEINDVEPEVFKEMMCFIYTGKAPNLDKMADDLLAAADKYALERLKVMCEDALCSNLSVENAAEILILADLHSADQLKTQAVDFINYHASDVLETSGWKSMVVSHPHLVAEAYRSLASAQCPFLGPPRKRLKQS [F133L]

Variants of: B1
Conditions: with ccnd3_human CCND3, P30281

effect of a mutation on the interaction | Variant
with no effect | MSRVPSPPPPAEMSSGPVAESWCYTQIKVVKFSYMWTINNFSFCREEMGEVIKSSTFSSGANDKLKWCLRVNPKGLDEESKDYLSLYLLLVSCPKSEVRAKFKFSILNAKGEETKAMESQRAYRFVQGKDWGLKKFIRRDFLLDEANGLLPDDKLTLFCEVSVVQDSVNISGQNTMNMVKVPECRLADELGGLWENSRFTDCCLCVAGQEFQAHKAILAARSPVFSAMFEHEMEESKKNRVEINDVEPEVFKEMMCFIYTGKAPNLDKMADDLLAAADKYALERLKVMCEDALCSNLSVENAAEILILADLHSADQLKTQAVDFINYHASDVLETSGWKSMVVSHPHLVAEAYRSLASAQCPFLGPPRKRLKQS [F133L]

Variants of: B1
Conditions: with cd44_human CD44, P16070

effect of a mutation on the interaction | Variant
with no effect | MSRVPSPPPPAEMSSGPVAESWCYTQIKVVKFSYMWTINNFSFCREEMGEVIKSSTFSSGANDKLKWCLRVNPKGLDEESKDYLSLYLLLVSCPKSEVRAKFKFSILNAKGEETKAMESQRAYRFVQGKDWGLKKFIRRDFLLDEANGLLPDDKLTLFCEVSVVQDSVNISGQNTMNMVKVPECRLADELGGLWENSRFTDCCLCVAGQEFQAHKAILAARSPVFSAMFEHEMEESKKNRVEINDVEPEVFKEMMCFIYTGKAPNLDKMADDLLAAADKYALERLKVMCEDALCSNLSVENAAEILILADLHSADQLKTQAVDFINYHASDVLETSGWKSMVVSHPHLVAEAYRSLASAQCPFLGPPRKRLKQS [F133L]

Variants of: B1
Conditions: with cd79b_human CD79B

effect of a mutation on the interaction | Variant
with no effect | MSRVPSPPPPAEMSSGPVAESWCYTQIKVVKFSYMWTINNFSFCREEMGEVIKSSTFSSGANDKLKWCLRVNPKGLDEESKDYLSLYLLLVSCPKSEVRAKFKFSILNAKGEETKAMESQRAYRFVQGKDWGLKKFIRRDFLLDEANGLLPDDKLTLFCEVSVVQDSVNISGQNTMNMVKVPECRLADELGGLWENSRFTDCCLCVAGQEFQAHKAILAARSPVFSAMFEHEMEESKKNRVEINDVEPEVFKEMMCFIYTGKAPNLDKMADDLLAAADKYALERLKVMCEDALCSNLSVENAAEILILADLHSADQLKTQAVDFINYHASDVLETSGWKSMVVSHPHLVAEAYRSLASAQCPFLGPPRKRLKQS [F133L]

Variants of: B1
Conditions: with cdc27_human CDC27, P30260

effect of a mutation on the interaction | Variant
with no effect | MSRVPSPPPPAEMSSGPVAESWCYTQIKVVKFSYMWTINNFSFCREEMGEVIKSSTFSSGANDKLKWCLRVNPKGLDEESKDYLSLYLLLVSCPKSEVRAKFKFSILNAKGEETKAMESQRAYRFVQGKDWGLKKFIRRDFLLDEANGLLPDDKLTLFCEVSVVQDSVNISGQNTMNMVKVPECRLADELGGLWENSRFTDCCLCVAGQEFQAHKAILAARSPVFSAMFEHEMEESKKNRVEINDVEPEVFKEMMCFIYTGKAPNLDKMADDLLAAADKYALERLKVMCEDALCSNLSVENAAEILILADLHSADQLKTQAVDFINYHASDVLETSGWKSMVVSHPHLVAEAYRSLASAQCPFLGPPRKRLKQS [F133L]

Variants of: B1
Conditions: with cdc73_human CDC73, Q6P1J9

effect of a mutation on the interaction | Variant
with no effect | MSRVPSPPPPAEMSSGPVAESWCYTQIKVVKFSYMWTINNFSFCREEMGEVIKSSTFSSGANDKLKWCLRVNPKGLDEESKDYLSLYLLLVSCPKSEVRAKFKFSILNAKGEETKAMESQRAYRFVQGKDWGLKKFIRRDFLLDEANGLLPDDKLTLFCEVSVVQDSVNISGQNTMNMVKVPECRLADELGGLWENSRFTDCCLCVAGQEFQAHKAILAARSPVFSAMFEHEMEESKKNRVEINDVEPEVFKEMMCFIYTGKAPNLDKMADDLLAAADKYALERLKVMCEDALCSNLSVENAAEILILADLHSADQLKTQAVDFINYHASDVLETSGWKSMVVSHPHLVAEAYRSLASAQCPFLGPPRKRLKQS [F133L]

Variants of: B1
Conditions: with cdk4_human CDK4, P11802

effect of a mutation on the interaction | Variant
with no effect | MSRVPSPPPPAEMSSGPVAESWCYTQIKVVKFSYMWTINNFSFCREEMGEVIKSSTFSSGANDKLKWCLRVNPKGLDEESKDYLSLYLLLVSCPKSEVRAKFKFSILNAKGEETKAMESQRAYRFVQGKDWGLKKFIRRDFLLDEANGLLPDDKLTLFCEVSVVQDSVNISGQNTMNMVKVPECRLADELGGLWENSRFTDCCLCVAGQEFQAHKAILAARSPVFSAMFEHEMEESKKNRVEINDVEPEVFKEMMCFIYTGKAPNLDKMADDLLAAADKYALERLKVMCEDALCSNLSVENAAEILILADLHSADQLKTQAVDFINYHASDVLETSGWKSMVVSHPHLVAEAYRSLASAQCPFLGPPRKRLKQS [F133L]

Reference: IntAct's records for PubMed 35512704
